Target: soluble human VEGF receptor Flt-1 3N (human) (UniProt P17948)
Assay: sandwich ELISA, KM1732 coated at 10 µg/ml, detection with biotin-labeled KM1730

UniProt P17948, sequence (P17948 27-338 limits assumed): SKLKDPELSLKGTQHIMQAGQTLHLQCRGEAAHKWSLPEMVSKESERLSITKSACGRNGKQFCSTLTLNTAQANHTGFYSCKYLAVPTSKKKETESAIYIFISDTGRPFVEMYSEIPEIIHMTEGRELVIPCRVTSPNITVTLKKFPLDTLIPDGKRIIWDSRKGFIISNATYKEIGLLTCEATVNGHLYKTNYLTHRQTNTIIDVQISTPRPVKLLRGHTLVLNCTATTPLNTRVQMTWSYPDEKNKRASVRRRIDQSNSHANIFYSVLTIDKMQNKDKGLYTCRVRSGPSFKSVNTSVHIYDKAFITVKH

B1: anti-human VEGF receptor Flt-1 mouse monoclonal antibody KM1732 (antibody, from another filing, mouse IgG1, V domains shown)
VH: QGQMQQSGAELVKPGASVKLSCKPSGFTFSSNYISWLKQKPGQSLEWIAWIYAGTGDASYNQKFTAKAHVTVDTSSSTAYMQLSSLTTEDSAIYYCARHGGDGYWFAYWGQGTLVTVSA
VL: QLVLTQSPAIMSASQGEKVTMTCSASSSVSYMHWYQQKSGTSPKRWIYDTSKLPSGVPARFSGSGSGTSYSLTISSMEAEDAATYYCQQWSSNPPTFGAGTKLELK
A minimum measurable concentration of 0.46 ng/mL was found for B1 in this work.

Source: EP1086956B1
